Experimental data reported in patent US6774222, “Molecular computing elements, gates and flip-flops” (The United States of America as represented by the …).

Key:
[1] = target: T1, Fis (Factor for Inversion Stimulation) (Escherichia coli, UniProt P0A6R3 P0A6R3:1-98); assay: EMSA; single shift only, no doubly shifted band up to 2200 nM Fis with 1 nM DNA; sites bound mutually exclusively; details: chain copies: 2 (dimer, stated); label: 5' biotin; self-complementary linear duplex
Description: (§1) FIG. 9 illustrates the mobility shift experiments for 11 and 7 base pair overlapping and 23 base pair separated Fis sites. Each lane contains increasing concentrations of Fis protein, beginning with no Fis, Fis diluted 1 to 64, etc. The 1:1 dilution is at 2200 nM Fis. This concentration was chosen intentionally so that with 1 nM DNA per reaction, the protein/DNA ratio is 2-fold higher than that needed to strongly shift DNA containing the 8.9 bit wild-type hin distal Fis site (Bruist et al. (1987) *Genes Dev.* 1: 762–772). Marker lanes (M) contain 10 ng of biotinylated […] hinfI digested DNA standards (Life Technologies, Inc.). Sizes are indicated in bp. The lowest band in most lanes of the figure is single-stranded oligonucleotide DNA. In the "Separated 23" experiment, at high concentrations, Fis proteins are apparently able to capture the single-stranded DNA when it has folded into a hairpin. This produces a faint band near the 100 bp marker.

[2] = target: T1, Fis (Factor for Inversion Stimulation); assay: EMSA; double shift; both sites bound simultaneously; up to 2200 nM Fis, 1 nM DNA; details: chain copies: 2 (dimer, stated); label: 5' biotin; self-complementary linear duplex
Description: as §1

T1 sequence (P0A6R3 whole entry, one chain of several): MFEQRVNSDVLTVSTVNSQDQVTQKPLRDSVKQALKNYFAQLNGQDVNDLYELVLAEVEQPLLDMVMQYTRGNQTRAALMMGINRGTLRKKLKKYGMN

B1: overlap 7 Fis sites (dsDNA)
DNA 1: AGGCTTTTGCTCAAAGTTTAAACTTTGAGCAAAAGCCT
DNA 2: AGGCTTTTGCTCAAAGTTTAAACTTTGAGCAAAAGCCT
B1: binds [1].

B2: overlap 11 Fis sites (dsDNA)
DNA 1: TATTCTTTGCTCAAAATTTGATCAAATTTTGAGCAAAGAATA
DNA 2: TATTCTTTGCTCAAAATTTGATCAAATTTTGAGCAAAGAATA
B2: binds [1].

B3: separated 23 Fis sites (dsDNA)
DNA 1: GGAATTCTTTGCTCAAAATTTGATCAGGATCCTGATCAAATTTTGAGCAAAGAATTCC
DNA 2: GGAATTCTTTGCTCAAAATTTGATCAGGATCCTGATCAAATTTTGAGCAAAGAATTCC
B3: binds [2].
